Results published in paper PMC6754406, “Ran pathway-independent regulation of mitotic Golgi disassembly by Importin-α” (Nature Communications, 2019).

What was measured:
p115-CTD = test: Competition binding assay, p115-CTD remaining on GST-GM130 in presence of Importin-α FL; conditions: 40 μM Importin-α FL; three independent experiments
Procedure: Fig. 3 GM130 interacts with full-length Importin-α. a, b ITC titration curves (upper) and binding isotherms (lower) of Importin-α FL with GM130-NLS WT (a) and GM130-NLS phospho-S25 (b). Kd values are indicated. c Pulldown assays of Importin-α FL with GM130-WT or GM130-S25D. GST-tagged GM-130-WT or GM130-S25D was incubated with Importin-α FL. GST-bound samples were analyzed by SDS–PAGE and stained with Coomassie blue. d Competition binding assay. p115-CTD was incubated with either GST-GM130-WT or GST-GM130-S25D in the presence of indicated concentrations of Importin-α FL. Samples pulled down by GST beads were analyzed by SDS–PAGE and stained with Coomassie blue. e, f Band intensities of Importin-α FL and p115-CTD from the SDS–PAGE gels in d were quantified and normalized by GST-GM130 intensity. Quantitative plots show normalized Importin-α FL intensities (e) and percent p115-CTD remaining on GM130 (f).
To examine whether Importin-α FL also competes with p115-CTD for GM130 binding, we carried out competition binding assays in the presence of Importin-α FL, p115-CTD, and GM130. […] Moreover, we observed a ~2-fold increase in Importin-α FL pulldown by the phosphomimetic mutant (GM130-S25D) compared to wild-type GM130 (40 μM Importin-α FL; Fig. 3d, e). […]

Importin-β = biological target: T1, Importin-β (Homo sapiens, UniProt Q14974); test: GST pulldown of Importin-β with RanQ69L (dissociation); type: binding; conditions: GM130:RanQ69L:Importin 1:4:1; three independent experiments
T1 construct: GST (N, cleaved yes); made in house; host or cells: Escherichia coli Rosetta
Procedure: Fig. 4 Ran and a phosphate moiety repress GM130 and Importin-β interaction. a SEC (Superdex 200) elution profiles for the Importin-β•GST-GM130-WT complex (black line), Importin-β (gray line), and GST-GM130-WT (light gray line). The void volume (Vo) is indicated. b–d The peak fractions of the Importin-β•GST-GM130-WT complex (b), Importin-β (c), and GST-GM130-WT (d) were analyzed by SDS–PAGE and stained with Coomassie blue. e, f ITC titration curves (upper) and binding isotherms (lower) of Importin-β with GM130-NLS WT (e) and GM130-NLS phospho-S25 (f). Kd values are indicated. g Competition binding assay. GST-GM130-S25D and Importin-β were incubated with indicated concentrations of GFP-IBB. Samples pulled down by GST beads were analyzed by SDS–PAGE and stained with Coomassie blue. […] GST-bound samples were analyzed by SDS–PAGE and stained with Coomassie blue. i, k Band intensities of Importin-α or Importin-β from the SDS–PAGE gels in h, j were used to determine averages of bound protein. […]
A 1:1 molar ratio of GST-GM130-WT or mutant GM130 and Importin-α FL was incubated with glutathione-coupled sepharose beads (GE Healthcare). After pre-washing with 150 mM NaCl, proteins were eluted by a buffer containing 50 mM reduced glutathione and analyzed by SDS–PAGE. […]

Importin-α (a.a. 70–498) = test: CD spectra thermal melting assay of complexes with Importin-α; type: physicochemical; conditions: CD at 222 nm, 20 to 75 °C, 0.2 mg/ml, 20 mM HEPES pH 7.4, 50 mM NaCl, 3 mM DTT; average of three scans; complex with Importin-α (a.a. 70–498)
Procedure: The CD spectra of the GM130-WT(1–48)•Importin-α (a.a. 70–498), GM130-S25D(1–48)•Importin-α (a.a. 70–498), and GM130-NLS phospho-S25 (a.a. 13–38)•Importin-α (a.a. 70–498) complexes were recorded using an AVIV CD400 spectrometer. Thermal melting temperatures were determined by measuring the ellipticity at a wavelength of 222 nm as a function of temperature from 20 to 75 °C. The protein concentration used in the CD measurements was 0.2 mg/ml in a buffer of 20 mM HEPES (pH 7.4), 50 mM NaCl, and 3 mM DTT. Measurements were taken three times and averaged.

T1 sequence (Q14974 whole entry): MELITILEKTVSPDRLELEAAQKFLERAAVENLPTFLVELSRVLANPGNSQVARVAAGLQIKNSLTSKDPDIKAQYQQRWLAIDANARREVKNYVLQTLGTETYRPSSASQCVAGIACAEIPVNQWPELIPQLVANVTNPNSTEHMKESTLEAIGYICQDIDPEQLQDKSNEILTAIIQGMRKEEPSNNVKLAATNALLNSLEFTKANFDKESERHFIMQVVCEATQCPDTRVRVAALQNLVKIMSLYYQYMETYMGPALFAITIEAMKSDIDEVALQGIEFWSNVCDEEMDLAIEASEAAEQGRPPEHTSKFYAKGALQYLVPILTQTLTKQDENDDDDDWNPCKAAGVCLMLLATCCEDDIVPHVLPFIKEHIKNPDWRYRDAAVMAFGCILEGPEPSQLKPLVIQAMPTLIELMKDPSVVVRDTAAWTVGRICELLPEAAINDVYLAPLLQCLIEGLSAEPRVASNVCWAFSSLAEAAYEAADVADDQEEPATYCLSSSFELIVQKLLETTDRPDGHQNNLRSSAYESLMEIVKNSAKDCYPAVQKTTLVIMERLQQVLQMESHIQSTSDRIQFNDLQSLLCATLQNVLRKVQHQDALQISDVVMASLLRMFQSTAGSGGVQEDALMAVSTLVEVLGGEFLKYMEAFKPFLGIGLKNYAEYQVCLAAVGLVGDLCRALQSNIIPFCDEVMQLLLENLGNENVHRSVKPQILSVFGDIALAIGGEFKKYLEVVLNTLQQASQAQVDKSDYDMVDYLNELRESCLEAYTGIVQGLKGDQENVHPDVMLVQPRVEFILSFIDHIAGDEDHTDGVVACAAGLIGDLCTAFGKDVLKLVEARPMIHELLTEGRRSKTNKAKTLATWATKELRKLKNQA

p115-CTD remaining on GM130 (p115-CTD): ~ 38%
release of Importin-β from Importin-β•GM130 complex by RanQ69L (Importin-β): ~ 47%
B1: GM130-WT: wild type GM130 N-terminal region (a.a. 1-85) (protein)
chain: MWPQPRLPPRPAMSEETRQSKLAAAKKKLREYQQRNSPGVPTGAKKKKKIKNGSNPETTTSGGCHSPEDTPKDNAATLQPSDDTVLPGGVPSPGASLTSMAASQNHDADNVPNLMDETKTFSSTESLRQLSQQLNGLVCESATCVNGEGPASSANLKDLESRYQQLAVALDSSYVTNKQLNITIEKLKQQNQEITDQLEEEKKECHQKQGALREQLQVHIQTIGILVSEKAELQTALAHTQHAARQKEGESEDLASRLQYSRRRVGELERALSAVSTQQKKADRYNKELTKERDALRLELYKNTQSNEDLKQEKSELEEKLRVLVTEKAGMQLNLEELQKKLEMTELLLQQFSSRCEAPDANQQLQQAMEERAQLEAHLGQVMESVRQLQMERDKYAENLKGESAMWRQRMQQMSEQVHTLREEKECSMSRVQELETSLAELRNQMAEPPPPEPPAGPSEVEQQLQAEAEHLRKELEGLAGQLQAQVQDNEGLSRLNREQEERLLELERAAELWGEQAEARRQILETMQNDRTTISRALSQNRELKEQLAELQSGFVKLTNENMEITSALQSEQHVKRELGKKLGELQEKLSELKETVELKSQEAQSLQQQRDQYLGHLQQYVAAYQQLTSEKEVLHNQLLLQTQLVDQLQQQEAQGKAVAEMARQELQETQERLEAATQQNQQLRAQLSLMAHPGEGDGLDREEEEDEEEEEEEAVAVPQPMPSIPEDLESREAMVAFFNSAVASAEEEQARLRGQLKEQRVRCRRLAHLLASAQKEPEAAAPAPGTGGDSVCGETHRALQGAMEKLQSRFMELMQEKADLKERVEELEHRCIQLSGETDTIGEYIALYQSQRAVLKERHREKEEYISRLAQDKEEMKVKLLELQELVLRLVGDRNEWHGRFLAAAQNPADEPTSGAPAPQELGAANQQGDLCEVSLAGSVEPAQGEAREGSPRDNPTAQQIMQLLREMQNPRERPGLGSNPCIPFFYRADENDEVKITVI
Tm (Importin-α (a.a. 70–498)): ~ 44 °C
